Experimental data taken from patent US8246957 (dated 2012).

What was measured:
Assay in all cases: cell-based or functional assay
[1] = target: T1, gp120 of HIV-1 primary isolate ZA009 (clade C) (HIV-1 strain ZA009)
[2] = target: gp120 of HIV-1 primary isolate Ug046 (clade D) (HIV-1 strain Ug046)
[3] = target: gp120 of HIV-1 primary isolate strain 23135 (clade B) (HIV-1 strain 23135)
[4] = target: T1, gp120 of HIV-1 primary isolate ZA009 …; remark: listed apart in the source

B1: Fv JL427 (scFv)
scFv: QSVLTQPPSVSGAPGQRVTISCSGSSSNFGLNYVTWQGHFPGTAPKLLIYRNDQRPLGVPARFSGSKSGTSASLAISGLRSEDEADYYCQSYDNSLSGWVFGGGYQLYVLGSSGGGGSGGGGSGGSAQVQLQQSGGGLVQPGRSLRLSCAASGFTFSSYGMHWVRQAPGKGLEWVSYIGRSGSHTNYADSVKGRFTISRDNSKNTLYLQINSLRAEDTAVYYCARGLPNYGMDIWGQGTTVTVSS
IC50, HIV-1 neutralization (p24, PBMC hosts) [1]: 0.3 µg Ab fragment/ml
IC90, HIV-1 neutralization (p24, PBMC hosts) [1]: 5.7 µg Ab fragment/ml
IC50, HIV-1 neutralization (p24, PBMC hosts) [2]: 5.5 µg Ab fragment/ml
IC90, HIV-1 neutralization (p24, PBMC hosts) [2]: 12.7 µg Ab fragment/ml
IC50, HIV-1 neutralization (p24, PBMC hosts) [3]: 22.4 µg Ab fragment/ml
IC90, HIV-1 neutralization (p24, PBMC hosts) [3]: 36.7 µg Ab fragment/ml
IC50, HIV-1 neutralization, independent preparations (N=3, mean and s.d.) [4]: 0.3 µg/mL
